The stoichiometry N is the number of molecules, sites or subunits per partner or assembly.

The values that follow come from article doi:10.1101/2023.04.01.535177 (bioRxiv, 2023).

Common to all, as to test: SEC
(Size exclusion chromatography separates by hydrodynamic size, large species first.)

In data set [1] the target is Parsonsia alboflavescens homospermidine synthase, single mutant V269I (IXXXD motif) (Parsonsia alboflavescens).
Data set [2] addresses Parsonsia alboflavescens homospermidine synthase, double mutant V269I D273N (IXXXN motif) (Parsonsia alboflavescens).
The target in data set [3] is Parsonsia alboflavescens homospermidine synthase, single mutant D273N (VXXXN motif) (Parsonsia alboflavescens).
The data set “SEC” deals with the molecule itself.

Turning to “Parsonsia alboflavescens homospermidine synthase, single mutant V269I (IXXXD motif) (enzyme)”, the stoichiometry N in data set [1] turned out to be 4. For the molecule “Parsonsia alboflavescens homospermidine synthase, double mutant V269I D273N (IXXXN motif) (enzyme)”, in data set [2], the stoichiometry N was 4. In data set [3], “Parsonsia alboflavescens homospermidine synthase, single mutant D273N (VXXXN motif) (enzyme)” had a stoichiometry N of 4.

B1: Parsonsia alboflavescens homospermidine synthase, wild type (VXXXD motif) (enzyme, UniProt A0A2P1M5T0 1-374, looked up)
chain: MGDDAIRQNFLDSARSNVFKALESLEGCKKIKGYDFNKGVNHRELLLSMVSTGFQASNLGDAIDVINQMRAWKLSDEPIPENCKEQEKDPKFRDSVRCKVFLGFTSNLISSGVRETIRYLAQHRMIDVLVTTAGGIEEDFIKCLAPTFKGDFSLPGAALRSKGLNRIGNLLVPNDNYCKFEDWIMPIFDKMLEEQLEEKVLWTPSRVIARLGKEINDESSYLYWAYKNKIPVYCPAITDGSIGDMLYFHSFRNPASLIVDIVQDVRNMDDEIVLAGLRKTGIIILGGGLPKHHICNANMMRNGADFAVFINTAQEFDGSDSGARPDEAISWGKIRSTAKHVKVHCDATIAFPLLVAETFAKGKSTWTKYLGYIY
B1: the “stoichiometry N” value in “SEC” came to 4.
